Data as given in patent US20210171647A1 (WUXI BIOLOGICS SHANGHAI, published 2021).

Experiments:
[1] = target: T1, human OX40, full-length, on cells (human, UniProt P43489 29-277); assay: flow cytometry on activated human CD4+ T cells
T1 construct: whole, on cells; also called hPro1; cell surface human OX40
T1 sequence (looked up): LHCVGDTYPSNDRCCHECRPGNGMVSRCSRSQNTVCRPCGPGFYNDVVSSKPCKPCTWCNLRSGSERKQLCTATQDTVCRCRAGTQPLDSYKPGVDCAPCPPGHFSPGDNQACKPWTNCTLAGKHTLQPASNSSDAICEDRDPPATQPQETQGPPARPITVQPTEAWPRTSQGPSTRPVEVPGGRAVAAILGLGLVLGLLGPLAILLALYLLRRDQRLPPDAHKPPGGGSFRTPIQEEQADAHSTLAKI
Method: Briefly, human OX40-expressing CHO-K1 cells or activated human CD4⁺ T cells were transferred into 96-well U-bottom plates (Corning) at a density of 1×10⁵ cells/well. Testing antibodies were serially diluted in wash buffer (1×PBS/1% BSA) and incubated with cells at 4° C. for 1 h. After washing with 1×PBS/1% BSA, the secondary antibody goat anti-human IgG Fc-PE (Jackson ImmunoResearch Lab) was applied and incubated with cells at 4° C. in the dark for 1 h. The cells were then washed and resuspended in 1×PBS/1% BSA or fixed with 4% paraformaldehyde, and then analyzed by flow cytometry (BD).

[2] = target: T2, human OX40-ECD.His A111G (human, UniProt P43489 29-214); assay: ELISA, antibody coated, OX40-ECD.His mutant supernatant; relative to silent alanine substitutions;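 also: captured OX40 mutant protein detected with HRP-labelled anti-His antibody, absorbance read-out, scaled to the mean signal of control mutants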
T2 construct: extracellular domain; not shown: C-terminal His-tag
T2 sequence (looked up): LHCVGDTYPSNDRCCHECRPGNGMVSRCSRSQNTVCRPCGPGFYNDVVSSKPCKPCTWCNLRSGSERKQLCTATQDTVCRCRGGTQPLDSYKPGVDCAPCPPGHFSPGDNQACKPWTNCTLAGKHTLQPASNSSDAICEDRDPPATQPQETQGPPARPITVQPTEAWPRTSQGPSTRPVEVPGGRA

[3] = target: T3, human OX40-ECD.His D117A (human, UniProt P43489 29-214); assay: as above
T3 construct: extracellular domain; not shown: C-terminal His-tag
T3 sequence (looked up): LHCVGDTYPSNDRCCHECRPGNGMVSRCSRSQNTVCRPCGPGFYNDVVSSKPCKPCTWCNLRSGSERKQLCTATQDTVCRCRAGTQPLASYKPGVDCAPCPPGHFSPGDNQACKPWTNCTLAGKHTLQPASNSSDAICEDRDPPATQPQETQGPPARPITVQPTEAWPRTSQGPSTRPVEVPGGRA

[4] = target: T4, human OX40-ECD.His V32A (human, UniProt P43489 29-214); assay: as above
T4 construct: extracellular domain; not shown: C-terminal His-tag
T4 sequence (looked up): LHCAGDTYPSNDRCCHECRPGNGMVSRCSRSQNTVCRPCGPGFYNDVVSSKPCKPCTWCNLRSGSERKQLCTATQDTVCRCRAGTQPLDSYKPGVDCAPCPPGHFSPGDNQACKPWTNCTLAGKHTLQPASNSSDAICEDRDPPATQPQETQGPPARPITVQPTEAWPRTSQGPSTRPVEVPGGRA

[5] = target: T5, human OX40-ECD.His T62A (human, UniProt P43489 29-214); assay: as above
T5 construct: extracellular domain; not shown: C-terminal His-tag
T5 sequence (looked up): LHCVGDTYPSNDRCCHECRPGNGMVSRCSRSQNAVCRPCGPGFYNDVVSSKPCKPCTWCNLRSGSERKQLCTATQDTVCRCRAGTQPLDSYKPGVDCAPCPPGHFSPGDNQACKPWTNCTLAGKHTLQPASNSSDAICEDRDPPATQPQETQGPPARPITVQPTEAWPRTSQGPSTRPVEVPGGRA

[6] = target: T6, human OX40-ECD.His R65A (human, UniProt P43489 29-214); assay: as above
T6 construct: extracellular domain; not shown: C-terminal His-tag
T6 sequence (looked up): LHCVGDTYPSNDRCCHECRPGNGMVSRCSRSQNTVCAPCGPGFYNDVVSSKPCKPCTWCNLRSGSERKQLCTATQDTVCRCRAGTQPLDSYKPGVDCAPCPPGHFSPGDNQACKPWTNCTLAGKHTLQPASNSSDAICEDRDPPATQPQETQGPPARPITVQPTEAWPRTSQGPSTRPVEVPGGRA

[7] = target: T7, human OX40-ECD.His Q114A (human, UniProt P43489 29-214); assay: as above
T7 construct: extracellular domain; not shown: C-terminal His-tag
T7 sequence (looked up): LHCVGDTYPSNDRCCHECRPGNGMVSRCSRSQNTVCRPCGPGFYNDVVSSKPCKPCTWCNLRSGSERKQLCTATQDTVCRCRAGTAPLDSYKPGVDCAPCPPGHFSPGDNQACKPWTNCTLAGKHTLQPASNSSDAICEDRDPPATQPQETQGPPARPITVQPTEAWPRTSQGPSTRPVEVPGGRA

[8] = target: T8, human OX40-ECD.His F71A (human, UniProt P43489 29-214); assay: as above
T8 construct: extracellular domain; not shown: C-terminal His-tag
T8 sequence (looked up): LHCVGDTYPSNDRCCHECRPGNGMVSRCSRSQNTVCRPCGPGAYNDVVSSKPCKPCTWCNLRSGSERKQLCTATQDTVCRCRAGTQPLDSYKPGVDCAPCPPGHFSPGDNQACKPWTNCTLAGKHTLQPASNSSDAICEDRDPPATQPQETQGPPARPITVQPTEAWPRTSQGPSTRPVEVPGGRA

[9] = target: T9, human OX40-ECD.His T113A (human, UniProt P43489 29-214); assay: as above
T9 construct: extracellular domain; not shown: C-terminal His-tag
T9 sequence (looked up): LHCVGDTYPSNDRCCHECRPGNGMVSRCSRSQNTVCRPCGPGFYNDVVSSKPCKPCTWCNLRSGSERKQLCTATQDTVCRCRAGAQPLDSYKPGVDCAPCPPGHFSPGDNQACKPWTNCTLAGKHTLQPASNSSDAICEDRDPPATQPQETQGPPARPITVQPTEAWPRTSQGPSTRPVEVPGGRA

[10] = target: T10, human OX40-ECD.His W86A (human, UniProt P43489 29-214); assay: as above
T10 construct: extracellular domain; not shown: C-terminal His-tag
T10 sequence (looked up): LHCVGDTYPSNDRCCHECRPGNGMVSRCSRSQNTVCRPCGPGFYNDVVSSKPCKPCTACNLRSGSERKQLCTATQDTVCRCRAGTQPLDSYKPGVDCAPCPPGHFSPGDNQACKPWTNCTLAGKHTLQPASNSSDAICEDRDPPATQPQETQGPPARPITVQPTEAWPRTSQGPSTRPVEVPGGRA

B1: 1.134.9-u1-IgG1L (antibody, V domains shown)
VH: QVQLQESGPGLVKPSGTLSLTCAVSGGSISSYNWWSWVRQPPGKGLEWIGEIYHGGNTNYNPSLKSRVTMSVDNSKNQFSLKLSSVTAADTAVYYCARAPGDWGGSPYFDFWGQGTLVTVSS
VL: SSELTQDPAVSVALGQTVRITCQGDNLRTYYASWYQQKPGQAPILLIYGRNKRPSGIPDRFSGSSSGNTASLTITGAQAEDEAAYYCNSRDSSGNPVVFGGGTKLTVL
notes: fully human IgG1, lambda
EC50 (read off the curve) [1]: 1 to 2 nM | Fold Change [2]: 0.853 | Fold Change [3]: 0.951 | Fold Change [4]: 1.01 | Fold Change [5]: 0.923 | Fold Change [6]: 0.996 | Fold Change [7]: 0.79 | Fold Change [8]: 0.866 | Fold Change [9]: 0.784 | Fold Change [10]: 0.842
